# In patent publication US20190054150A1 (AEQUUS BIOPHARMA, published 2019):
# Square brackets hold non-standard residues; d marks the D form. Ends that are not written are not given here. Nle = CCCC[C@H](N)C(=O)O; βAla = NCCC(=O)O
# B1: ACTH1-24-linker-Furin site-linker-NDP-α-MSH (peptide)
# peptide: SYSMEHFRWGKPVGKKRRPVKVYPGGGGSRRKRGGGGSSYS[Nle]EH[dF]RWGKPV
# modifications: ends and bridges not checked
# B2: NDP-ACTH4-9-ACTH1-24 (peptide)
# peptide: XEHXRWSYSMEHFRWGKPVGKKRRPVKVYP
# modifications: Nle at position 1 and dPhe at position 4 as printed: Nle-EH-dPhe-RWSYSMEHFRWGKPVGKKRRPVKVYP
# B3: ACTH1-24-natural N-terminal spacer-α-MSH (peptide)
# peptide: SYSMEHFRWGKPVGKKRRPVKVYPPLPEGGPEPRSDGAKPGPREGKRSYSMEHFRWGKPV
# B4: NDP-α-MSH-linker-MMP (broad) site-linker-ACTH1-24 (peptide)
# peptide: Ac-SYS[Nle]EH[dF]RWGKPVGGGGSPAGLVAGGGGSSYSMEHFRWGKPVGKKRRPVKVYP
# B5: NDP-ACTH4-9-βAla-G-βAla-NDP-ACTH4-9 (peptide)
# peptide: [Nle]EH[dF]RW[βAla]G[βAla][Nle]EH[dF]RW
# B6: ACTH1-24-linker-MMP site-linker-NDP-α-MSH (peptide)
# peptide: SYSMEHFRWGKPVGKKRRPVKVYPGGGGSPLGLWAGGGGSSYS[Nle]EH[dF]RWGKPV
# modifications: ends and bridges not checked
# B7: NDP-α-MSH-linker-MMP site-linker-ACTH1-24 (peptide)
# peptide: Ac-SYS[Nle]EH[dF]RWGKPVGGGGSPLGLWAGGGGSSYSMEHFRWGKPVGKKRRPVKVYP
# B8: ACTH1-24-natural C-terminal spacer-NDP-α-MSH (peptide)
# peptide: SYSMEHFRWGKPVGKKRRPVKVYPELTGQRLREGDGPDGPADDGAGASYS[Nle]EH[dF]RWGKPV
# modifications: ends and bridges not checked
# B9: ACTH1-24-natural N-terminal spacer-NDP-α-MSH (peptide)
# peptide: SYSMEHFRWGKPVGKKRRPVKVYPPLPEGGPEPRSDGAKPGPREGKRSYS[Nle]EH[dF]RWGKPV
# modifications: ends and bridges not checked
# B10: γ-MSH-ACTH1-24 without linker and cleavage site (peptide)
# peptide: YVMGHFRWDRFGSYSMEHFRWGKPVGKKRRPVKVYP
# B11: ACTH1-24-proconvertase-NDP-α-MSH (peptide)
# peptide: SYSMEHFRWGKPVGKKRRPVKVYPGGGGSRRKRSYS[Nle]EH[dF]RWGKPV
# B12: NDP-α-MSH-linker-Furin site-linker-ACTH1-24 (peptide)
# peptide: Ac-SYS[Nle]EH[dF]RWGKPVGGGGSRRKRGGGGSSYSMEHFRWGKPVGKKRRPVKVYP
# B13: γ-MSH with linker (peptide)
# peptide: YVMGHFRWDRFGRRNSSSSGSSGAGQKR
# B14: ACTH1-24-proconvertase-α-MSH (peptide)
# peptide: SYSMEHFRWGKPVGKKRRPVKVYPGGGGSRRKRSYSMEHFRWGKPV
# B15: γ-MSH-ACTH1-24 (peptide)
# peptide: YVMGHFRWDRFGKRSYSMEHFRWGKPVGKKRRPVKVYP
# B16: ACTH1-24-linker-MMP (broad) site-linker-NDP-α-MSH (peptide)
# peptide: SYSMEHFRWGKPVGKKRRPVKVYPGGGGSPAGLVAGGGGSSYS[Nle]EH[dF]RWGKPV
# modifications: ends and bridges not checked
# B17: ACTH1-39 (peptide)
# peptide: SYSMEHFRWGKPVGKKRRPVKVYPNGAEDESAEAFPLEFKR
# B18: γ-MSH-ACTH1-24 linker without cleavable site (peptide)
# peptide: YVMGHFRWDRFGRRNSSSSGSSGAGQSYSMEHFRWGKPVGKKRRPVKVYP
# B19: NDP-ACTH4-9-βAla-G-βAla-ACTH1-24 (peptide)
# peptide: XEHXRWAGASYSMEHFRWGKPVGKKRRPVKVYP
# modifications: Nle, dPhe and β-Ala residues as printed: Nle-EH-dPhe-RW-β-Ala-G-β-Ala-SYSMEHFRWGKPVGKKRRPVKVYP
# Molecular target: MCR3 (human, UniProt P41968 1-323)
# Sequence (P41968 whole entry): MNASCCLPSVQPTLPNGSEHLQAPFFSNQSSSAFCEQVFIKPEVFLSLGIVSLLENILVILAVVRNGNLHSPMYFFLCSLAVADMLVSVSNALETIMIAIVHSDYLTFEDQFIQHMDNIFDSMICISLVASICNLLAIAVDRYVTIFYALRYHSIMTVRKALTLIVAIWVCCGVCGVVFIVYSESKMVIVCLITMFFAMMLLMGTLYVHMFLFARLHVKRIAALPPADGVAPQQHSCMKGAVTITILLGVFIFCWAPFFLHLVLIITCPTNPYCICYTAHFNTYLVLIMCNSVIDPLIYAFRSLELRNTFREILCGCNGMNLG
# Assay: cell-based or functional assay
Binder,"MCR3 EC50 (nM); cAMP production, LANCE cAMP assay, CHO-MCR3 cells, cell pool B [nM]","MCR3 EC50 (nM); cAMP production, LANCE cAMP assay, CHO-MCR3 cells, cell pool A [nM]"
B1,0.453,–
B2,6.8,–
B3,6.2,–
B4,1.5,–
B5,25,–
B6,4.7,–
B7,17,–
B8,1.66,–
B9,0.62,–
B10,–,33
B11,0.51,–
B12,4,–
B13,11,–
B14,6.1,–
B15,–,38
B16,1,–
B17,18,–
B18,–,16
B19,5.5,–

# Molecular target: MCR4 (human, UniProt P32245 1-332)
# Sequence (P32245 whole entry): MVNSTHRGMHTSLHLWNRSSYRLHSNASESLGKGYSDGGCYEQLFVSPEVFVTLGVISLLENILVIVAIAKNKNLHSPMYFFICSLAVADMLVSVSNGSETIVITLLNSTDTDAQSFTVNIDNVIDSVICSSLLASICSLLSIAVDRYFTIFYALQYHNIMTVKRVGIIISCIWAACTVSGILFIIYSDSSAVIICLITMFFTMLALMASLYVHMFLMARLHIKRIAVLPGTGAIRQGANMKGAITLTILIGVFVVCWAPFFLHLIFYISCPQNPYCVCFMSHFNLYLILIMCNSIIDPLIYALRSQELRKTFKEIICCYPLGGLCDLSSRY
# Assay: cell-based or functional assay
row,Binder,"MCR4 EC50 (nM); cAMP production, LANCE cAMP assay, CHO-MCR4 cells, cell pool B [nM]"
1,B1,1.9
2,B2,0.8
3,B3,> 20
4,B4,1.9
5,B5,6.7
6,B6,5.8
7,B7,14
8,B8,8.7
9,B9,1.6
10,B11,1.6
11,B12,6.5
12,B13,> 100
13,B14,26
14,B16,4.8
15,B17,31
16,B19,2.4

# Molecular target: MCR1 (human, UniProt Q01726 1-317)
# Sequence (Q01726 whole entry): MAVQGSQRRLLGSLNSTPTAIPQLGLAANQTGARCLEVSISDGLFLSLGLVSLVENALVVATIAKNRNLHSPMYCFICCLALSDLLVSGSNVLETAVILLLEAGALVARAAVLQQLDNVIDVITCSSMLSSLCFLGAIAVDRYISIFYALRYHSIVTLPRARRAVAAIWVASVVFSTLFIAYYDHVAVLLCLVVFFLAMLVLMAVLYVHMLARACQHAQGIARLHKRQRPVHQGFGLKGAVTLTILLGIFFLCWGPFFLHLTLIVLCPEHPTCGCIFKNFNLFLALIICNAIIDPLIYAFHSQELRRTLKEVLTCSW
# Assay: cell-based or functional assay
Binder,"MCR1 EC50 (nM); cAMP production, LANCE cAMP assay, CHO-MCR1 cells, cell pool B [nM]","MCR1 EC50 (nM); cAMP production, LANCE cAMP assay, CHO-MCR1 cells, cell pool A [nM]","MCR1 EC50 (nM); cAMP production, LANCE cAMP assay, CHO-MCR1 cells, cell pool B (second value printed below the first) [nM]"
B1,0.202,–,–
B2,0.17,–,–
B3,0.82,–,–
B4,0.295,–,–
B5,0.35,–,–
B6,1.6,–,–
B7,2.4,–,–
B8,0.8,–,–
B9,0.63,–,–
B10,–,12,–
B11,0.44,–,–
B12,0.333,–,–
B13,19,–,–
B14,0.92,–,–
B15,–,22,–
B16,0.528,–,0.36
B17,0.55,–,–
B18,–,11,–
B19,0.16,–,–
